Drawing on doi:10.1101/2020.03.10.986331, this text covers Kd for four molecules.

For this assay, the target named is SPPV14ΔC31 (sheeppoxvirus SPPV14 residues 1-145, 31 residue C-terminal deletion) (sheeppoxvirus). As to the kind of experiment: ITC. (In general: In ITC the heat of successive injections is recorded.)

Bad BH3 motif peptide (human): the Kd (as a rule, a measure of binding affinity in units of concentration) is 5200 nM.
Bax BH3 motif peptide (human, 28-mer) came in with a dissociation constant (Kd) of 26 nM.
The figure for Hrk BH3 motif peptide (human, 26-mer) is 39 nM; for VPGRLAEVCAVLLRLGDELEMIRPSV [Bok BH3 motif peptide (human, residues 59-84)] it is 7600 nM.
